# Assay results from the nanobody polyreactivity screen of Harvey et al. (2022).
# Experiment: yeast display, Sf9 membrane polyspecificity reagent, FACS + sequencing; frameworks hold sequencing errors
# In short: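 After 36–48 hours of galactose induction, yeast (Saccharomyces cerevisiae BJ5465) displaying a synthetic nanobody library were stained at 4 °C for 1 hour with 10% biotinylated, detergent-solubilized Sf9 membrane reagent. Streptavidin microbeads enriched the stained cells before FACS sorting into low and high (top ~1%) gates on anti-HA and streptavidin fluorescence. Each clone's polyreactivity label reflects its gate of origin.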
row,Sequence,polyreactivity (PSR sort gate)
1,QVQLVESGGGLVQAGGSLRLSCAASGITFVNNSRGCYRQAPVKEREFVAAISQGGGSTYYADSVKGRFTISRDNAKYTVYLQMNSLKPEDTAVYYCAAEIPRWWRFGYWGQGTQVTVSS,low polyreactivity
2,QVQLVESGGGLVQAGGSLRLSCAASGITFVPNAMGWYRQAPGKERELVAAITGNGGRTYYADSVKGRFTISRDNAKNTVYLQMNSLKPEDTAVYYCNGRKLYWAYTLSKYDYWGQGTQLTVSS,high polyreactivity
3,QVQLVESGGGLVQAGGSLRLSCAASGITFVQNVMGWYRQAPGKEREFVAGINYSGGSTYYADSVKGRFTISRDNAKNTVYLQMNSLKPEDTAVYYCAADYDRYTYAFVYRYRRMYYWGQGTQVTVSS,low polyreactivity
4,QVQLVESGGGLVQAGGSLRLSCAASGITFVQYAMGWYRQAPGKERELVAAIRRGGSTSYADSVKGRFTISRDNAKNTVYLQMNSLKPEDTAVYYCARRYDWPITPLDVEYWGQGTQVTVSS,low polyreactivity
5,QVQLVESGGGLVQAGGSLRLSCAASGITFVRNAMGWYRQAPGKEREFVAAISWSGGSTYYADSVKGRFTISRDNAKNTVYLQMNSLKPEDTAVYYCAAAYPRVTYKYGYYWGQGTQVTVSS,high polyreactivity
6,QVQLVESGGGLVQAGGSLRLSCAASGITFVRYAMGWYRQAPGKERELVAVISRGGITNYADSVKGRFTISRDNAKNSVYLQMNSLKAEDTAVYYCAVRVRSNVRTYDYWGQGTQVTVSS,high polyreactivity
7,QVQLVESGGGLVQAGGSLRLSCAASGITFVRYTMGWYRQAPGKEWELVATITLSGGRTYYADSVQGRFTISRDNAKNTVSLQMTSLKPEDTAVYYCAASSRSRWSGYRYDYWGQGTQVTVSS,high polyreactivity
8,QVQLVESGGGLVQAGGSLRLSCAASGITFVSNGMGWYRTAPGKERELVAAITRSGGSTYYADSVKGRFTISRDNAKNTVYLQMNSLKPEDTAVYYCNARTSRYRRGGDSWGQGTQVTVSS,high polyreactivity
9,QVQLVESGGGLVQAGGSLRLSCAASGITFVTYAMGWYRQAPGKERELVAAITIGGRTNYADSVKGRFTISRDNAKNTVYLQMNSLKPEDTAVYYCNAAPVYDVTRLFYDDMGYWGQGTQVTVSS,low polyreactivity
10,QVQLVESGGGLVQAGGSLRLSCAASGITFVWNAMGWYRQAPGKERELVATISRGGVRTYYADSVKGRFTISRDNAKNTVYLQMNSLKPEDTAVYYCNKRYWYPSSLHWTSFRGYDYWGQGTQVTVSS,low polyreactivity
11,QVQLVESGGGLVQAGGSLRLSCAASGITFVWNAMGWYRQAPGKVREFVAGITYRSGRTYYADSVKGRFTISRDNAKNTVYLQMNSLKPEETAGYYCATTPRYTTYNYWGQGTQVTVSS,high polyreactivity
12,QVQLVESGGGLVQAGGSLRLSCAASGITFVYNAMGWYRQAPGKERELVASITFGGGSTYYADSVKGRFTISRDNAKITVYLQMHSLKPEDTAVYYCAARLHVAFDYWGQGTQVTVSS,low polyreactivity
13,QVQLVESGGGLVQAGGSLRLSCAASGITFVYYAMGWYRPAPGKERELVAAISWNGGSTYYADSVKGRFTISRDNAKNTVYLQMNSLKPEDSAVYYCNADSDPWYGHFSYYYYDMGYWGQGTQVTVSS,low polyreactivity
14,QVQLVESGGGLVQAGGSLRLSCAASGITFWAYAMGWYRQAPGKERELVAAITSGGSTNYADSVKGRFTISRDNAKNTVYLQMNSLKPEDTAVYYCAKNYRYYVFYDGFDYWGQGTQVTVSS,low polyreactivity
15,QVQLVESGGGLVQAGGSLRLSCAASGITFWAYAMGWYRQAPGKERELVASISSGGSTYYADSVKGRFTISRDNAKNTVYLQMNSLKPEDTAVYYCAATTLRWYGDTFNYWGQGTQVTVSS,high polyreactivity
16,QVQLVESGGGLVQAGGSLRLSCAASGITFWGYVMGWYRQAPGKERELVAAISSSGGRTYYADSVKGRFTISRDNAKNTVYLQMNSLKPEDTAVYYCAAVAWQGTVQFGYWGQGTQVTVSS,high polyreactivity
17,QVQLVESGGGLVQAGGSLRLSCAASGITFWKYAMGWYRQAPGKERELVAAISGRGGSTYYADSVKGRFTISRDNAKNTVYLQMNSLKPEDTAVFYCAKFPGISGYNYWGQGTQVTVSS,high polyreactivity
18,QVQLVESGGGLVQAGGSLRLSCAASGITFWSNAMGWYRQAPGKERELVAAITSSGGSTYYADSVKGRFTISRDNAKNTVYLQMNSLKPEDTAVYYCAAPISRSAGWDSYDYWGQGTQVTVSS,low polyreactivity
19,QVQLVESGGGLVQAGGSLRLSCAASGITFWTYTMGWYRQAPGTERELVAAISKRGGSTYYADSVKGRFTISRDNAKNSVYLQMNSLKPEDTAVYYCAATYSYRFSSFDYWGQGTQVTVSS,high polyreactivity
20,QVQLVESGGGLVQAGGSLRLSCAASGITFWVYVKGWYRQAPGKEREFVADISSGAGTTYYADSVKGRFTISRDNAKNTVYLQMNSLKPEDTAVYYFAARRWWPQWYDYWGQGTQVTVSS,high polyreactivity
21,QVQLVESGGGLVQAGGSLRLSCAASGITFWYYAMGWYRQAPGKERELVAAISWDGGSTYYADSVKGRFTISRDNAKNTVYLQMNSLKPEDTAVYYCAAEQYLYTWARHRANFDYWGQGTQVTVSS,high polyreactivity
22,QVQLVESGGGLVQAGGSLRLSCAASGITFWYYAMGWYRQAPRKERELVAAISWDGGSTYYADSVKGRFTISRDNAKNTVYVQMNSLKPEDTAVYYCNAVRYLERKYDYWGQGTQVTVSS,high polyreactivity

row,Sequence,polyreactivity (PSR sort gate)
1,QVQLVESGGGLVQAGGSLRLSCAASGITFYDNVMGWYIQAPGKERELVAAITSGGSTNYADSVKGRFTISRDNAKNTVYLQMNSLKPEDTAVYYCAAQPRVDYEFPYRYGYWGQGTQVTVSS,low polyreactivity
2,QVQLVESGGGLVQAGGSLRLSCAASGITFYDNVMGWYRQAPGKERELVAAITSGGSTNYADSVKGRFTISRDNAKNTVYLQMNSLKPEDTAVYYCAAEGISVTAAQSEWYDYWGQGTQVTVSS,low polyreactivity
3,QVQLVESGGGLVQAGGSLRLSCAASGITFYDYAMGWYRQAPGKERELVAAISFSGSRTYYADSVKGRFTISRDNAKNTVYLQMNSLKPEDTAVYYCAASPSTPNKYGSWGQGTQVTVSS,high polyreactivity
4,QVQLVESGGGLVQAGGSLRLSCAASGITFYEYAMGCYRQAPGKERELVATITSGGNTNYADSVKGRFTISRDNAKNTVYLQMNSLKPEDTAVYYCNKEWDGDGYTDDCDYDYWGQGTQVTVSS,low polyreactivity
5,QVQLVESGGGLVQAGGSLRLSCAASGITFYEYAMGWYRQAPGKERELVASISGSGGSTFYADSVKGRFTISRDNAKNTVYLQMNSLKPEDTAVYYCAAYKEPYYEEYGYWGQGTQVTVSS,low polyreactivity
6,QVQLVESGGGLVQAGGSLRLSCAASGITFYFNTMGWYRQAPGKERELVASIRNTGSTYADSVKGRFTISRDNAKNTVYLQMNSLKPEDTAVYYCAARRRKYYRGEYGYWGQGTQVTVSS,high polyreactivity
7,QVQLVESGGGLVQAGGSLRLSCAASGITFYFNTMGWYRQAPGKVRELVASISGGSSTYYADSVKGRFTISRDNAKNTVYLQMNSLKPEDTAVYYCNAQGALFRGWFDYDYWGQGTQVTVSS,low polyreactivity
8,QVQLVESGGGLVQAGGSLRLSCAASGITFYGNAMGLYRQAPGKERELVANTYYADSVKGRFTISRDNAKNTVYLQMNSLKPEDTAVYYCANRNARYRSLPPGYDYWGLGTQVTVSS,low polyreactivity
9,QVQLVESGGGLVQAGGSLRLSCAASGITFYGNDMGGYRQAPGKERELVAAISYSGGSTYYADSVKGRFTISRDNAKNTVYLQMNSLKPEDNAGYYCAVEGTKLYEYYWGQVTQVTVSS,low polyreactivity
10,QVQLVESGGGLVQAGGSLRLSCAASGITFYGYAMGWYRQAPGKERELVATISSGGSTNYADSVKGRFTISRDNAKNTVYLQMNSLKPEDTAVYYCNAAPDVNRDYEGSGDYWGQGSQVTVSS,low polyreactivity
11,QVQLVESGGGLVQAGGSLRLSCAASGITFYKNTMGWYRQAPGKERELVAAISSSGDNTFYADSVKGRFTISRDNAKNTVYLQMNSLKPEDTAVYYCATYRVINTIRGYYYTYDYWGQGTQVTVSS,high polyreactivity
12,QVQLVESGGGLVQAGGSLRLSCAASGITFYPYAMGWYSQAPGKEWELVADITWSGGSTYYADSVKGRFTISRDNAKNTVYLQMNSLKPEDSAVYYCNRKSYRLRSKVRGQYLLGYDWGQGTQVTVSS,high polyreactivity
13,QVQLVESGGGLVQAGGSLRLSCAASGITFYPYTLGWYRQAPGKERELVASISTSGTNYADSVKGRFTISRDNAKNTVYLQMNSLKPEDTAVYYCAADIWSYYRSTHVDSWGQGTQVTVSS,low polyreactivity
14,QVQLVESGGGLVQAGGSLRLSCAASGITFYQYAMGWSRQAPGKERELVAAIRWSGSSTYYADSVKGRFTISRDNAKNTVYLQMNSLKPEDTAVYYCAAAPGGWPGEYWGQGTQVTVSS,low polyreactivity
15,QVQLVESGGGLVQAGGSLRLSCAASGITFYQYVMGRYRQAPGKERELVAAISTSGDSTYYADYVKGRFTISRDNAKNTVYLQINSLKTEDTAVYYCATYWSGHYYYWGQGTQVTVSS,high polyreactivity
16,QVQLVESGGGLVQAGGSLRLSCAASGITFYRNAMGWYRKAPGKERELLAAISWSGGRTYYADSVKGRFTISRDNAKNTVYLQMNSLKPEDTAVYYCAASSWSSYYRPKYYWGQGTQVTVSS,high polyreactivity
17,QVQLVESGGGLVQAGGSLRLSCAASGITFYRNARGWYRQAPGKERELVAAITSGTRTYYADSVKGRFTISRDNAKNTVYLQMNSLKPEDTAVYYCAKRGPYYNDDEYYCGQGTQVTVSS,low polyreactivity
18,QVQLVESGGGLVQAGGSLRLSCAASGITFYRYAMGWSRQAPGKERELVAAIRRAGSTYYADSVKGRFTISRDIAKNSVYLQMNSLKPEDTAVYYCNARYGIGMNYWGQGTHVTVSS,high polyreactivity
19,QVQLVESGGGLVQAGGSLRLSCAASGITFYRYAMGWYRQAPGKEREFVAAITWGSTYYADSVKGRFTISRDNAKNTVYLQMNSLTPEDTAVYYCNADWGGFWQHRELDSWGQGTQVTVSS,low polyreactivity
20,QVQLVESGGGLVQAGGSLRLSCAASGITFYRYAMGWYRQAPGKERELVAAISSRGGRTYYADSVKGRFTISRDNAKNTVYLQMNSLKPEDTAVYYCAKGGKVGSTLEYDYWGQGTQVTVSS,high polyreactivity
21,QVQLVESGGGLVQAGGSLRLSCAASGITFYRYAMGWYRQAPGKERELVAAISYRGGRTFYADSVKGRFTISRDNAKNTVYLQMNSLKPEDTAVYYCNARDYYEKMDYWGQGTQVTVSS,high polyreactivity
